According to publication PMC7391724 (Scientific Reports, 2020):
Like-named read-outs stand apart in the source and are kept apart here.

Columns and labels:
[1] = Plasma pharmacokinetics after intravenous EC2629 in rats; format: in vivo; settings: rat
Protocol: The plasma pharmacokinetics of EC2629 and metabolite EC2491 were evaluated following intravenous administration of EC2629 to male and female rats. The toxicokinetic phase of the study consisted of 5 groups with three animals/gender assigned to the control group, and nine animals/gender assigned to each of the treatment groups. […] Blood samples were collected from Group 0 at 10 min post-dose, and from Groups 1–4 at pre-dose, 2, 10, and 30 min and 1, 2, 8, 12, and 24 h post-dose. Plasma was prepared and analyzed for concentrations of EC2629 and metabolite EC2491. Mean plasma EC2629 and EC2491 concentration–time data for males and females, separately, of Groups 1–4 and were subjected to noncompartmental toxicokinetic evaluations and the results are summarized in Table S3.

[2] = Plasma protein binding (ultrafiltration), rat; format: in vitro ADME; settings: 37 °C
Protocol: (§1) Plasma ultrafiltration was used for determination of free and protein bound fractions of EC2629 and EC2491. Samples were extracted and analyzed using fit-for-purpose bioanalytical methods. Briefly, 500 nM EC2629 or EC2491 was spiked into plasma maintained at 37 °C prior to plasma ultrafiltration. Plasma spiked with 500 nM EC2629 or EC2491 was allowed to equilibrate at 37 °C for 30 min prior to processing. Next, 50 μL of plasma was transferred to a clean 1.2 mL plate stored at 2–8 °C for further processing. The remaining plasma sample volumes were transferred to 30 Kd MWCO PES filter to generate plasma ultrafiltrate by centrifugation at 10,000×g for 20 min. After which, 50 μL of each plasma ultrafiltrate was transferred to separate wells in a clean 1.2 mL plate. To all spiked plasma samples, 50 μL of blank plasma ultrafiltrate was added. 50 μL of blank plasma was added to all experimental ultrafiltrate samples. These blank matrix additions normalized the matrix effects for protein binding determination. Samples were then extracted using protein precipitation with a 3:1 ratio of acetonitrile after addition of internal standard. The supernatant transferred to a new plate, evaporated, and reconstituted prior to LC–MS/MS analysis.

[3] = Plasma protein binding (ultrafiltration), mouse; format: in vitro ADME; settings: 37 °C
Protocol: as §1

[4] = Plasma protein binding (ultrafiltration), dog; format: in vitro ADME; settings: 37 °C
Protocol: as §1

[5] = Plasma protein binding (ultrafiltration), human; format: in vitro ADME; settings: 37 °C
Protocol: as §1

[6] = Plasma protein binding (ultrafiltration), across all species; format: in vitro ADME; settings: rat, mouse, dog, human, 37 °C, read-out: plasma protein binding, range across all species
Protocol: as §1

Plasma stability, rat = format: in vitro ADME; settings: 500 nM, 37 °C, 2 h
Protocol: (§2) Whole blood and plasma stability were determined for EC2629 and EC2491 at a concentration of 500 nM. Samples were extracted and analyzed using fit-for-purpose bioanalytical methods. EC2629 or EC2491 was spiked into 1 mL whole blood or plasma maintained at 37 °C for 30 min prior to use . Fifty µl aliquots were then removed at defined timepoints and stored in a 1.2 mL extraction plate prior to analysis. Samples were then extracted using protein precipitation with a 3:1 ratio of acetonitrile after addition of internal standard. The supernatant was then transferred to a new plate, evaporated, and reconstituted prior to LC–MS/MS analysis.

Plasma stability, dog = format: in vitro ADME; settings: 500 nM, 37 °C, 2 h
Protocol: as §2

[7] = Whole blood stability, rat; format: in vitro ADME; settings: 37 °C, after two hours, read-out: percent remaining in whole blood
Protocol: as §2

[8] = Whole blood stability, mouse; format: in vitro ADME; settings: 500 nM, 37 °C, two hours, mouse blood
Protocol: as §2

[9] = Whole blood stability, dog; format: in vitro ADME; settings: 37 °C, after two hours, read-out: percent remaining in whole blood
Protocol: as §2

[10] = Whole blood stability, human; format: in vitro ADME; settings: 500 nM, 37 °C, two hours, human blood
Protocol: as §2

[11] = 0.1 mg/kg, 0.10 mg/kg iv, female, Group 2
[12] = 0.1 mg/kg, 0.10 mg/kg iv, male, Group 2
[13] = 0.5 mg/kg, 0.50 mg/kg iv, female, Group 4
[14] = 0.5 mg/kg, 0.50 mg/kg iv, male, Group 4

## C=C1C[C@H]2C=Nc3cc(OCCCCCOc4cc(N)c(C(=O)N5CC(=C)C[C@H]5C5OCCN5C(=O)OCC(C)(C)SSCCC(=O)NCCNC(=O)CCOCCOCCOCCOCCNC(=O)CCN5C(=O)CC(SC[C@H](NC(=O)[C@H](CC(=O)O)NC(=O)[C@H](CC(=O)O)NC(=O)[C@H](CCCNC(=N)N)NC(=O)[C@H](CC(=O)O)NC(=O)CC[C@H](NC(=O)c6ccc(NCc7cnc8nc(N)[nH]c(=O)c8n7)cc6)C(=O)O)C(=O)O)C5=O)cc4OC)c(OC)cc3C(=O)N2C1 (some centres unmarked) [EC2629]
[1]; both sexes, across 0.05-0.50 mg/kg iv dose groups, males and females, read-out: Clearance (Cl), range
  clearance: 1.51 to 2.9 mL/min/kg
[1]; both sexes, across 0.05-0.50 mg/kg iv dose groups, males and females, read-out: volume of distribution (Vz), range
  Vd: 0.109 to 0.191 L/kg
[1]; 0.05 mg/kg iv, female, Group 1
  AUC(0-inf): 287 ng·h/mL
  AUC(0-t): 260 ng·h/mL
  C0: 662 ng/mL
  Cmax: 545 ng/mL
  Tmax: 1.98 min
  half-life: 37.6 min
[1]; 0.05 mg/kg iv, female, Group 1, read-out: Cl (converted)
  clearance: 2.9 mL/min/kg
[1]; 0.05 mg/kg iv, female, Group 1, read-out: Vz
  Vd: 0.157 L/kg
[1]; 0.05 mg/kg iv, male, Group 1
  AUC(0-inf): 384 ng·h/mL
  AUC(0-t): 305 ng·h/mL
  C0: 669 ng/mL
  Cmax: 595 ng/mL
  Tmax: 1.98 min
  half-life: 61.2 min
[1]; 0.05 mg/kg iv, male, Group 1, read-out: Cl (converted)
  clearance: 2.17 mL/min/kg
[1]; 0.05 mg/kg iv, male, Group 1, read-out: Vz
  Vd: 0.191 L/kg
[1]; [11]
  AUC(0-inf): 633 ng·h/mL
  AUC(0-t): 596 ng·h/mL
  C0: 1570 ng/mL
  Cmax: 1330 ng/mL
  Tmax: 1.98 min
  half-life: 31.5 min
[1]; 0.1 mg/kg, 0.10 mg/kg iv, female, Group 2, read-out: Cl (converted)
  clearance: 2.63 mL/min/kg
[1]; 0.1 mg/kg, 0.10 mg/kg iv, female, Group 2, read-out: Vz
  Vd: 0.12 L/kg
[1]; [12]
  AUC(0-inf): 699 ng·h/mL
  AUC(0-t): 617 ng·h/mL
  C0: 1690 ng/mL
  Cmax: 1390 ng/mL
  Tmax: 1.98 min
  half-life: 42.4 min
[1]; 0.1 mg/kg, 0.10 mg/kg iv, male, Group 2, read-out: Cl (converted)
  clearance: 2.38 mL/min/kg
[1]; 0.1 mg/kg, 0.10 mg/kg iv, male, Group 2, read-out: Vz
  Vd: 0.146 L/kg
[1]; 0.25 mg/kg iv, female, Group 3
  AUC(0-inf): 1750 ng·h/mL
  AUC(0-t): 1640 ng·h/mL
  C0: 3740 ng/mL
  Cmax: 3230 ng/mL
  Tmax: 1.98 min
  half-life: 31.8 min
[1]; 0.25 mg/kg iv, female, Group 3, read-out: Cl (converted)
  clearance: 2.38 mL/min/kg
[1]; 0.25 mg/kg iv, female, Group 3, read-out: Vz
  Vd: 0.109 L/kg
[1]; 0.25 mg/kg iv, male, Group 3
  AUC(0-inf): 1930 ng·h/mL
  AUC(0-t): 1670 ng·h/mL
  C0: 4310 ng/mL
  Cmax: 3580 ng/mL
  Tmax: 1.98 min
  half-life: 46.2 min
[1]; 0.25 mg/kg iv, male, Group 3, read-out: Cl (converted)
  clearance: 2.15 mL/min/kg
[1]; 0.25 mg/kg iv, male, Group 3, read-out: Vz
  Vd: 0.144 L/kg
[1]; [13]
  AUC(0-inf): 3540 ng·h/mL
  AUC(0-t): 3230 ng·h/mL
  C0: 7060 ng/mL
  Cmax: 6070 ng/mL
  Tmax: 1.98 min
  half-life: 36.7 min
[1]; 0.5 mg/kg, 0.50 mg/kg iv, female, Group 4, read-out: Cl (converted)
  clearance: 2.35 mL/min/kg
[1]; 0.5 mg/kg, 0.50 mg/kg iv, female, Group 4, read-out: Vz
  Vd: 0.125 L/kg
[1]; [14]
  AUC(0-inf): 5510 ng·h/mL
  AUC(0-t): 5450 ng·h/mL
  C0: 8450 ng/mL
  Cmax: 7080 ng/mL
  Tmax: 1.98 min
  half-life: 84 min
[1]; 0.5 mg/kg, 0.50 mg/kg iv, male, Group 4, read-out: Cl (converted)
  clearance: 1.51 mL/min/kg
[1]; 0.5 mg/kg, 0.50 mg/kg iv, male, Group 4, read-out: Vz
  Vd: 0.183 L/kg
[2]
  fraction unbound at 30 min, 500 nM: 0.026
[3]
  fraction unbound at 30 min, 500 nM: 0.051
[4]
  fraction unbound at 30 min, 500 nM: 0.055
[5]
  fraction unbound at 30 min, 500 nM: 0.128
[6]
  fraction unbound at 30 min, 500 nM: 0.026 to 0.128
Plasma stability, rat
  plasma stability: stable
Plasma stability, dog
  plasma stability: stable
[7]
  remaining at 2 h, 500 nM: 75.1%
[8]
  whole blood stability: no observed degradation
[9]
  remaining at 2 h, 500 nM: 75.8%
[10]
  whole blood stability: no observed degradation
